# Assay results published in paper PMC11359509, “Anti-Skin Aging Potential, Antibacterial Activity, Inhibition of Single-Stranded DNA-Binding Protein, and Cytotoxic Effects of Acetone-Extracted Passiflora edulis (Tainung No. 1) Rind Extract on Oral”.
# Biological target: KpSSB (single-stranded DNA-binding protein) (Klebsiella pneumoniae, UniProt A6TGW7 1-174)
# Test: EMSA; no extract; [Protein]50; 40 mM Tris-HCl pH 7.5, 50 mM NaCl, 37 °C, 60 min; 30 fmol/uL biotinylated ssDNA; 8% native PAGE in TBE
# Details: protein: recombinant, tag not described, chain copies: 4
# Chain of KpSSB (single-stranded DNA-binding protein) (A6TGW7 whole entry): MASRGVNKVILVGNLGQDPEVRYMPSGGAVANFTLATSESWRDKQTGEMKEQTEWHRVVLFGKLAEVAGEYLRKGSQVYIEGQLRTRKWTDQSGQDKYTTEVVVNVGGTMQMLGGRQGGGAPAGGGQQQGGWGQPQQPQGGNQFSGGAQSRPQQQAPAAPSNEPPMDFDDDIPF
binder,measurement,value
TTTTTTTTTTTTTTTTTTTTTTTTTTTTTTTTTTT (ssDNA) [dT35],apparent K (half saturation),206 ± 14.3 nM
